Reference: patent US20250388628A1 (Genentech, published 2025)

B1: AAV2 VP3 VLP A593E (other)
chain: MATGSGAPMADNNEGADGVGNSSGNWHCDSTWMGDRVITTSTRTWALPTYNNHLYKQISSQSGASNDNHYFGYSTPWGYFDFNRFHCHFSPRDWQRLINNNWGFRPKRLNFKLFNIQVKEVTQNDGTTTIANNLTSTVQVFTDSEYQLPYVLGSAHQGCLPPFPADVFMVPQYGYLTLNNGSQAVGRSSFYCLEYFPSQMLRTGNNFTFSYTFEDVPFHSSYAHSQSLDRLMNPLIDQYLYYLSRTNTPSGTTTQSRLQFSQAGASDIRDQSRNWLPGPCYRQQRVSKTSADNNNSEYSWTGATKYHLNGRDSLVNPGPAMASHKDDEEKFFPQSGVLIFGKQGSEKTNVDIEKVMITDEEEIRTTNPVATEQYGSVSTNLQRGNRQAATEDVNTQGVLPGMVWQDRDVYLQGPIWAKIPHTDGHFHPSPLMGGFGLKHPPPQILIKNTPVPANPSTTFSAAKFASFITQYSTGQVSVEIEWELQKENSKRWNPEIQYTSNYNKSVNVDFTVDTNGVYSEPRPIGTRYLTRNL
notes: VP3-only VLP
B2: AAV2 VP3 VLP T592D (other)
chain: MATGSGAPMADNNEGADGVGNSSGNWHCDSTWMGDRVITTSTRTWALPTYNNHLYKQISSQSGASNDNHYFGYSTPWGYFDFNRFHCHFSPRDWQRLINNNWGFRPKRLNFKLFNIQVKEVTQNDGTTTIANNLTSTVQVFTDSEYQLPYVLGSAHQGCLPPFPADVFMVPQYGYLTLNNGSQAVGRSSFYCLEYFPSQMLRTGNNFTFSYTFEDVPFHSSYAHSQSLDRLMNPLIDQYLYYLSRTNTPSGTTTQSRLQFSQAGASDIRDQSRNWLPGPCYRQQRVSKTSADNNNSEYSWTGATKYHLNGRDSLVNPGPAMASHKDDEEKFFPQSGVLIFGKQGSEKTNVDIEKVMITDEEEIRTTNPVATEQYGSVSTNLQRGNRQAADADVNTQGVLPGMVWQDRDVYLQGPIWAKIPHTDGHFHPSPLMGGFGLKHPPPQILIKNTPVPANPSTTFSAAKFASFITQYSTGQVSVEIEWELQKENSKRWNPEIQYTSNYNKSVNVDFTVDTNGVYSEPRPIGTRYLTRNL
notes: VP3-only VLP
B3: AAV receptor (AAVR) fragment comprising the domains PKD1 and PKD2 (residues V305-V499) (receptor)
chain: VIKELVVSAGESVQITLPKNEVQLNAYVLQEPPKGETYTYDWQLITHPRDYSGEMEGKHSQILKLSKLTPGLYEFKVIVEGQNAHGEGYVNVTVKPEPRKNRPPIAIVSPQFQEISLPTTSTVIDGSQSTDDDKIVQYHWEELKGPLREEKISEDTAILKLSKLVPGNYTFSLTVVDSDGATNSTTANLTVNKAV
B4: AAV9 VP3 VLP A273N, A472H, E500P (other)
VP3: MASGGGAPVADNNEGADGVGSSSGNWHCDSQWLGDRVITTSTRTWALPTYNNHLYKQISNSTSGGSSNDNNYFGYSTPWGYFDFNRFHCHFSPRDWQRLINNNWGFRPKRLNFKLFNIQVKEVTDNNGVKTIANNLTSTVQVFTDSDYQLPYVLGSAHEGCLPPFPADVFMIPQYGYLTLNDGSQAVGRSSFYCLEYFPSQMLRTGNNFQFSYEFENVPFHSSYAHSQSLDRLMNPLIDQYLYYLSKTINGSGQNQQTLKFSVAGPSNMHVQGRNYIPGPSYRQQRVSTTVTQNNNSPFAWPGASSWALNGRNSLMNPGPAMASHKEGEDRFFPLSGSLIFGKQGTGRDNVDADKVMITNEEEIKTTNPVATESYGQVATNHQSAQAQAQTGWVQNQGILPGMVWQDRDVYLQGPIWAKIPHTDGNFHPSPLMGGFGMKHPPPQILIKNTPVPADPPTAFNKDKLNSFITQYSTGQVSVEIEWELQKENSKRWNPEIQYTSNYYKSNNVEFAVNTEGVYSEPRPIGTRYLTRNL
notes: VP3-only VLP
B5: AAV9 VP3 VLP A273N, Q387K, A472H, E500P (other)
VP3: MASGGGAPVADNNEGADGVGSSSGNWHCDSQWLGDRVITTSTRTWALPTYNNHLYKQISNSTSGGSSNDNNYFGYSTPWGYFDFNRFHCHFSPRDWQRLINNNWGFRPKRLNFKLFNIQVKEVTDNNGVKTIANNLTSTVQVFTDSDYQLPYVLGSAHEGCLPPFPADVFMIPQYGYLTLNDGSKAVGRSSFYCLEYFPSQMLRTGNNFQFSYEFENVPFHSSYAHSQSLDRLMNPLIDQYLYYLSKTINGSGQNQQTLKFSVAGPSNMHVQGRNYIPGPSYRQQRVSTTVTQNNNSPFAWPGASSWALNGRNSLMNPGPAMASHKEGEDRFFPLSGSLIFGKQGTGRDNVDADKVMITNEEEIKTTNPVATESYGQVATNHQSAQAQAQTGWVQNQGILPGMVWQDRDVYLQGPIWAKIPHTDGNFHPSPLMGGFGMKHPPPQILIKNTPVPADPPTAFNKDKLNSFITQYSTGQVSVEIEWELQKENSKRWNPEIQYTSNYYKSNNVEFAVNTEGVYSEPRPIGTRYLTRNL
notes: VP3-only VLP
B6: AAV9 VP3 VLP I451Y, S454I, E500P (other)
chain: MASGGGAPVADNNEGADGVGSSSGNWHCDSQWLGDRVITTSTRTWALPTYNNHLYKQISNSTSGGSSNDNAYFGYSTPWGYFDFNRFHCHFSPRDWQRLINNNWGFRPKRLNFKLFNIQVKEVTDNNGVKTIANNLTSTVQVFTDSDYQLPYVLGSAHEGCLPPFPADVFMIPQYGYLTLNDGSQAVGRSSFYCLEYFPSQMLRTGNNFQFSYEFENVPFHSSYAHSQSLDRLMNPLIDQYLYYLSKTYNGIGQNQQTLKFSVAGPSNMAVQGRNYIPGPSYRQQRVSTTVTQNNNSPFAWPGASSWALNGRNSLMNPGPAMASHKEGEDRFFPLSGSLIFGKQGTGRDNVDADKVMITNEEEIKTTNPVATESYGQVATNHQSAQAQAQTGWVQNQGILPGMVWQDRDVYLQGPIWAKIPHTDGNFHPSPLMGGFGMKHPPPQILIKNTPVPADPPTAFNKDKLNSFITQYSTGQVSVEIEWELQKENSKRWNPEIQYTSNYYKSNNVEFAVNTEGVYSEPRPIGTRYLTRNL
notes: VP3-only VLP
B7: AAV9 VP3 VLP I451Y, S454I, E500P, P504I (other)
chain: MASGGGAPVADNNEGADGVGSSSGNWHCDSQWLGDRVITTSTRTWALPTYNNHLYKQISNSTSGGSSNDNAYFGYSTPWGYFDFNRFHCHFSPRDWQRLINNNWGFRPKRLNFKLFNIQVKEVTDNNGVKTIANNLTSTVQVFTDSDYQLPYVLGSAHEGCLPPFPADVFMIPQYGYLTLNDGSQAVGRSSFYCLEYFPSQMLRTGNNFQFSYEFENVPFHSSYAHSQSLDRLMNPLIDQYLYYLSKTYNGIGQNQQTLKFSVAGPSNMAVQGRNYIPGPSYRQQRVSTTVTQNNNSPFAWIGASSWALNGRNSLMNPGPAMASHKEGEDRFFPLSGSLIFGKQGTGRDNVDADKVMITNEEEIKTTNPVATESYGQVATNHQSAQAQAQTGWVQNQGILPGMVWQDRDVYLQGPIWAKIPHTDGNFHPSPLMGGFGMKHPPPQILIKNTPVPADPPTAFNKDKLNSFITQYSTGQVSVEIEWELQKENSKRWNPEIQYTSNYYKSNNVEFAVNTEGVYSEPRPIGTRYLTRNL
modifications: One VP3 subunit is given; in the assay it stood assembled as a VP3-only icosahedral VLP capsid.
notes: VP3-only VLP
B8: AAV9 VP3 VLP I451Y, S454I, E500P, P504T (other)
chain: MASGGGAPVADNNEGADGVGSSSGNWHCDSQWLGDRVITTSTRTWALPTYNNHLYKQISNSTSGGSSNDNAYFGYSTPWGYFDFNRFHCHFSPRDWQRLINNNWGFRPKRLNFKLFNIQVKEVTDNNGVKTIANNLTSTVQVFTDSDYQLPYVLGSAHEGCLPPFPADVFMIPQYGYLTLNDGSQAVGRSSFYCLEYFPSQMLRTGNNFQFSYEFENVPFHSSYAHSQSLDRLMNPLIDQYLYYLSKTYNGIGQNQQTLKFSVAGPSNMAVQGRNYIPGPSYRQQRVSTTVTQNNNSPFAWTGASSWALNGRNSLMNPGPAMASHKEGEDRFFPLSGSLIFGKQGTGRDNVDADKVMITNEEEIKTTNPVATESYGQVATNHQSAQAQAQTGWVQNQGILPGMVWQDRDVYLQGPIWAKIPHTDGNFHPSPLMGGFGMKHPPPQILIKNTPVPADPPTAFNKDKLNSFITQYSTGQVSVEIEWELQKENSKRWNPEIQYTSNYYKSNNVEFAVNTEGVYSEPRPIGTRYLTRNL
modifications: One VP3 subunit is given; in the assay it stood assembled as a VP3-only icosahedral VLP capsid.
notes: VP3-only VLP
B9: AAV9 VP3 VLP Q387K, A472H, E500P (other)
VP3: MASGGGAPVADNNEGADGVGSSSGNWHCDSQWLGDRVITTSTRTWALPTYNNHLYKQISNSTSGGSSNDNAYFGYSTPWGYFDFNRFHCHFSPRDWQRLINNNWGFRPKRLNFKLFNIQVKEVTDNNGVKTIANNLTSTVQVFTDSDYQLPYVLGSAHEGCLPPFPADVFMIPQYGYLTLNDGSKAVGRSSFYCLEYFPSQMLRTGNNFQFSYEFENVPFHSSYAHSQSLDRLMNPLIDQYLYYLSKTINGSGQNQQTLKFSVAGPSNMHVQGRNYIPGPSYRQQRVSTTVTQNNNSPFAWPGASSWALNGRNSLMNPGPAMASHKEGEDRFFPLSGSLIFGKQGTGRDNVDADKVMITNEEEIKTTNPVATESYGQVATNHQSAQAQAQTGWVQNQGILPGMVWQDRDVYLQGPIWAKIPHTDGNFHPSPLMGGFGMKHPPPQILIKNTPVPADPPTAFNKDKLNSFITQYSTGQVSVEIEWELQKENSKRWNPEIQYTSNYYKSNNVEFAVNTEGVYSEPRPIGTRYLTRNL
notes: VP3-only VLP

Key:
[1] = target: B3; experiment: SPR; affinity against wild-type AAV2 VLP
[2] = target: B1; experiment: SPR; captured AAV2 VP3 VLP, AAVR analyte
[3] = target: T1, AAV2 VP3 VLP T592D/A593E (adeno-associated virus serotype 2 (AAV2), UniProt P03135 203-735); experiment: SPR; captured AAV2 VP3 VLP, AAVR analyte
T1 construct: VP3-only VLP

[4] = target: T2, Wild-type AAV2 VP3 VLP (adeno-associated virus serotype 2 (AAV2), UniProt P03135 203-735); experiment: SPR; captured AAV2 VP3 VLP, AAVR analyte
T2 construct: VP3-only VLP; also called Wild-type AAV2 VLP (WT); WT

[5] = target: B2; experiment: SPR; captured AAV2 VP3 VLP, AAVR analyte
[6] = target: B3; experiment: SPR; against wild-type VLP
[7] = target: B3; experiment: SPR; captured AAV9 VP3 VLP, AAVR analyte

Binder	KD Fold Change [6] [fold]	Kd [7] [nM]	koff [7] [s⁻¹]	kon [7] [M⁻¹ s⁻¹]	other results
B1					Fold change vs WT [1]: ~4 fold
B2					Fold change vs WT [1]: 5 fold
B3					Kd [2]: 520 nM; koff [2]: 0.0111 s⁻¹; kon [2]: 21600 M⁻¹ s⁻¹; Kd [3]: 330 nM; koff [3]: 0.00652 s⁻¹; kon [3]: 19600 M⁻¹ s⁻¹; Kd [4]: 2100 nM; koff [4]: 0.0311 s⁻¹; kon [4]: 15100 M⁻¹ s⁻¹; Kd [5]: 420 nM; koff [5]: 0.00797 s⁻¹; kon [5]: 19100 M⁻¹ s⁻¹
B4	455	5.14	0.000236	45900	
B5	5560	0.421	3.96e-05	94000	
B6	217				
B7	214				
B8	146				
B9	3370	0.694	0.000338	487000	
